Reference: EP0717753B1

Legend:
p185 HER2/neu [1] = target: p185 HER2/neu (UniProt P04626); assay: radioimmunoassay on fixed SKBR3 cells, 125I anti-mouse Ig secondary antibody
[2] = target: Epidermal Growth Factor Receptor (UniProt P00533); assay: radioimmunoassay on fixed A431 cells (non-target cell line for MGR6), 125I anti-mouse Ig secondary antibody
p185 HER2/neu [3] = target: p185 HER2/neu (UniProt P04626); assay: radioimmunoassay on fixed SKBR3 cells (non-target cell line for Mint5), 125I anti-mouse Ig secondary antibody
[4] = target: Epidermal Growth Factor Receptor (UniProt P00533); assay: radioimmunoassay on fixed A431 cells, 125I anti-mouse Ig secondary antibody
[5] = target: Epidermal Growth Factor Receptor (UniProt P00533); assay: cell-based or functional assay

Row | Substance | % binding (p185 HER2/neu [1]) [%] | % binding [2] [%] | % binding (p185 HER2/neu [3]) [%] | % binding [4] [%] | INHIBITION OF CELL PROLIFERATION: IC50 CELL LINE A431, protocol A [5] | INHIBITION OF CELL PROLIFERATION: IC50 CELL LINE A431, protocol B [5] | INHIBITION OF PROTEIN … IN CELL SYSTEM: IC50 CELL LINE A431, protocol A [5] | INHIBITION OF PROTEIN … IN CELL SYSTEM: IC50 CELL LINE A431, protocol B [5]
1 | immunoconjugate MGR6 - Piramidatine (antibody) | 105 |  |  |  |  |  |  | 
2 | immunoconjugate MGR6 - Ocymoidine (antibody) | 87.5 | 15.3 |  |  |  |  |  | 
3 | immunoconjugate Mint5 - Piramidatine (antibody) |  |  | 18.8 | 110 | 1.3e-12 | 4.2e-11 | 1e-11 | 1e-11
4 | immunoconjugate Mint5 - Ocymoidine (antibody) |  |  | 9.38 | 78.5 | 1.9e-12 | 3.2e-11 | 1e-11 | 1e-11
